# In patent US20100021987:
# B1: human SENP2 (hSENP2) SUMO protease catalytic domain (protein)
# chain: MASLLELTEDMEKEISNALGHGPQDEILSSAFKLRITRGDIQTLKNYHWLNDEVINFYMNLLVERNKKQGYPALHVFSTFFYPKLKSGGYQAVKRWTKGVNLFEQEIILVPIHRKVHWSLVVIDLRKKCLKYLDSMGQKGHRICEILLQYLQDESKTKRNSDLNLLEWTHHSMKPHEIPQQLNGSDCGMFTCKYADYISRDKPITFTQHQMPLFRKKMVWEILHQQLLAAALEHHHHHH
# B2: Saccharomyces cerevisiae Ulp1 SUMO protease catalytic domain (protein)
# chain: MGLVPELNEKDDDQVQKALASRENTQLMNRDNIEITVRDFKTLAPRRWLNDTIIEFFMKYIEKSTPNTVAFNSFFYTNLSERGYQGVRRWMKRKKTQIDKLDKIFTPINLNQSHWALGIIDLKKKTIGYVDSLSNGPNAMSFAILTDLQKYVMEESKHTIGEDFDLIHLDCPQQPNGYDCGIYVCMNTLYGSADAPLDFDYKDAIRMRRFIAHLILTDALKLEHHHHHH
# Assays:
# [1] = biological target: 6xHis-hSUMO-3-X-eGFP, X = W
# [2] = biological target: 6xHis-hSUMO-3-X-eGFP, X = S
# [3] = biological target: 6xHis-hSUMO-3-X-eGFP, X = P
# [4] = biological target: 6xHis-hSUMO-3-X-eGFP, X = C
# [5] = biological target: 6xHis-hSUMO-3-X-eGFP, X = T
# [6] = biological target: 6xHis-hSUMO-3-X-eGFP, X = G
# [7] = biological target: 6xHis-hSUMO-3-X-eGFP, X = Y
# [8] = biological target: 6xHis-hSUMO-3-X-eGFP, X = H
# [9] = biological target: 6xHis-hSUMO-3-X-eGFP, X = L
# [10] = biological target: 6xHis-hSUMO-3-X-eGFP, X = I
# [11] = biological target: 6xHis-hSUMO-3-X-eGFP, X = R
# [12] = biological target: 6xHis-hSUMO-3-X-eGFP, X = D
# [13] = biological target: 6xHis-hSUMO-3-X-eGFP, X = E
# [14] = biological target: 6xHis-hSUMO-3-X-eGFP, X = V
# [15] = biological target: 6xHis-hSUMO-3-X-eGFP, X = A
# [16] = biological target: 6xHis-hSUMO-3-X-eGFP, X = N
# [17] = biological target: 6xHis-hSUMO-3-X-eGFP, X = F
# [18] = biological target: 6xHis-hSUMO-3-X-eGFP, X = K
# [19] = biological target: 6xHis-hSUMO-3-X-eGFP, X = Q
protein,measurement,setting,value
B1,activity level (grade),6xHis-T-SUMO-eGFP,+
same,"Percent cleavage, enzyme:substrate 1:100",[1],100%
same,"Percent cleavage, enzyme:substrate 1:1000",[1],99.4%
same,"Percent cleavage, enzyme:substrate 1:100",[2],99.6%
same,"Percent cleavage, enzyme:substrate 1:1000",[2],99.1%
same,"Percent cleavage, enzyme:substrate 1:100",[3],0%
same,"Percent cleavage, enzyme:substrate 1:1000",[3],0%
same,"Percent cleavage, enzyme:substrate 1:100",[4],100%
same,"Percent cleavage, enzyme:substrate 1:1000",[4],98.5%
same,"Percent cleavage, enzyme:substrate 1:100",[5],99%
same,"Percent cleavage, enzyme:substrate 1:1000",[5],82%
same,"Percent cleavage, enzyme:substrate 1:100",[6],100%
same,"Percent cleavage, enzyme:substrate 1:1000",[6],98.9%
same,"Percent cleavage, enzyme:substrate 1:100",[7],100%
same,"Percent cleavage, enzyme:substrate 1:1000",[7],98.7%
same,activity level (grade),6xHis-AtSUMO2-eGFP,+
same,"Percent cleavage, enzyme:substrate 1:100",[8],100%
same,"Percent cleavage, enzyme:substrate 1:1000",[8],98.4%
same,"Percent cleavage, enzyme:substrate 1:100",[9],98.6%
same,"Percent cleavage, enzyme:substrate 1:1000",[9],75.2%
same,activity level (grade),6xHis-AtSUMO1-eGFP,+
same,"cleavage, 2-fold enzyme dilution series, SDS-PAGE",6xHis-AtSUMO1-eGFP,Both hSENP2 and yUlp1 cleaved the AtSUMO1 fusion similarly
same,"Percent cleavage, enzyme:substrate 1:100",[10],98.4%
same,"Percent cleavage, enzyme:substrate 1:1000",[10],56.2%
same,"Percent cleavage, enzyme:substrate 1:100",[11],99.7%
same,"Percent cleavage, enzyme:substrate 1:1000",[11],98.7%
same,"Percent cleavage, enzyme:substrate 1:100",[12],99.5%
same,"Percent cleavage, enzyme:substrate 1:1000",[12],69.8%
same,"Percent cleavage, enzyme:substrate 1:100",[13],100%
same,"Percent cleavage, enzyme:substrate 1:1000",[13],92.2%
same,"Percent cleavage, enzyme:substrate 1:100",[14],100%
same,"Percent cleavage, enzyme:substrate 1:1000",[14],99.8%
same,Kcat,6xHis-hSUMO-3-eGFP,Kcat = 0.33
same,"Kcat, fold difference against yUlp1",6xHis-hSUMO-3-eGFP,about 12-fold difference in Kcat
same,Km,6xHis-hSUMO-3-eGFP,Km = 2.41 mM
same,"Percent cleavage, enzyme:substrate 1:100",6xHis-hSUMO-3-eGFP,99.4%
same,"Percent cleavage, enzyme:substrate 1:1000",6xHis-hSUMO-3-eGFP,95.4%
same,activity level (grade),6xHis-hSUMO-3-eGFP,+++
same,"cleavage, 2-fold enzyme dilution series, SDS-PAGE; fold against yUlp1",6xHis-hSUMO-3-eGFP,hSENP2 was able to cleave hSUMO-3-eGFP at least 4-fold better than an identical amount of yUlp1
same,"cleavage, time course, SDS-PAGE",6xHis-hSUMO-3-eGFP,providing nearly complete cleavage within 2 hrs.
same,"Percent cleavage, enzyme:substrate 1:100",[15],99.6%
same,"Percent cleavage, enzyme:substrate 1:1000",[15],92.5%
same,"Percent cleavage, enzyme:substrate 1:100",[16],96.2%
same,"Percent cleavage, enzyme:substrate 1:1000",[16],98.3%
same,"Percent cleavage, enzyme:substrate 1:100",[17],100%
same,"Percent cleavage, enzyme:substrate 1:1000",[17],98.9%
same,"Percent cleavage, enzyme:substrate 1:100",[18],100%
same,"Percent cleavage, enzyme:substrate 1:1000",[18],92.8%
same,"Percent cleavage, enzyme:substrate 1:100",[19],95.9%
same,"Percent cleavage, enzyme:substrate 1:1000",[19],66.7%
same,activity level (grade),6xHis-hSUMO-1-eGFP,++
same,"cleavage, 2-fold enzyme dilution series, SDS-PAGE; fold against yUlp1",6xHis-hSUMO-1-eGFP,hSENP2 was able to cleave hSUMO-1 and ySmt3 fusions somewhat more effectively (about 2-fold) than yUlp1
same,"cleavage, time course, SDS-PAGE",6xHis-hSUMO-1-eGFP,both enzymes cleaving hSUMO-1-eGFP poorly
same,Kcat,6xHis-ySmt3-eGFP,Kcat = 0.75
same,"Kcat, fold difference against yUlp1",6xHis-ySmt3-eGFP,about 2-fold difference in Kcat
same,Km,6xHis-ySmt3-eGFP,Km = 2.72 mM
same,activity level (grade),6xHis-ySmt3-eGFP,+++++
same,"cleavage, 2-fold enzyme dilution series, SDS-PAGE; fold against yUlp1",6xHis-ySmt3-eGFP,hSENP2 was able to cleave hSUMO-1 and ySmt3 fusions somewhat more effectively (about 2-fold) than yUlp1
same,"cleavage, time course, SDS-PAGE",6xHis-ySmt3-eGFP,both enzymes cleaving hSUMO-1-eGFP poorly and ySmt3-eGFP well
B2,activity level (grade),6xHis-T-SUMO-eGFP,++
same,"cleavage, 2-fold enzyme dilution series, SDS-PAGE",6xHis-T-SUMO-eGFP,yUlp1 had a distinct advantage in the cleavage of T-SUMO-eGFP
same,"cleavage, time course, SDS-PAGE",6xHis-T-SUMO-eGFP,cleaving not only T-SUMO but also AtSUMO1 and AtSUMO2 significantly better than did hSENP2
same,"Percent cleavage, enzyme:substrate 1:100",[1],89.7%
same,"Percent cleavage, enzyme:substrate 1:1000",[1],16.8%
same,"Percent cleavage, enzyme:substrate 1:100",[2],98.2%
same,"Percent cleavage, enzyme:substrate 1:1000",[2],16.7%
same,"Percent cleavage, enzyme:substrate 1:100",[3],0%
same,"Percent cleavage, enzyme:substrate 1:1000",[3],0%
same,"Percent cleavage, enzyme:substrate 1:100",[4],98.4%
same,"Percent cleavage, enzyme:substrate 1:1000",[4],25.3%
same,"Percent cleavage, enzyme:substrate 1:100",[5],95.8%
same,"Percent cleavage, enzyme:substrate 1:1000",[5],14.3%
same,"Percent cleavage, enzyme:substrate 1:100",[6],96.5%
same,"Percent cleavage, enzyme:substrate 1:1000",[6],27%
same,"Percent cleavage, enzyme:substrate 1:100",[7],96.9%
same,"Percent cleavage, enzyme:substrate 1:1000",[7],16.9%
same,activity level (grade),6xHis-AtSUMO2-eGFP,++
same,"cleavage, 2-fold enzyme dilution series, SDS-PAGE",6xHis-AtSUMO2-eGFP,a slight advantage in the cleavage of AtSUMO2-eGFP
same,"cleavage, time course, SDS-PAGE",6xHis-AtSUMO2-eGFP,cleaving not only T-SUMO but also AtSUMO1 and AtSUMO2 significantly better than did hSENP2
same,"Percent cleavage, enzyme:substrate 1:100",[8],90.8%
same,"Percent cleavage, enzyme:substrate 1:1000",[8],25.5%
same,"Percent cleavage, enzyme:substrate 1:100",[9],4.4%
same,"Percent cleavage, enzyme:substrate 1:1000",[9],0%
same,activity level (grade),6xHis-AtSUMO1-eGFP,++
same,"cleavage, 2-fold enzyme dilution series, SDS-PAGE",6xHis-AtSUMO1-eGFP,Both hSENP2 and yUlp1 cleaved the AtSUMO1 fusion similarly
same,"cleavage, time course, SDS-PAGE",6xHis-AtSUMO1-eGFP,cleaving not only T-SUMO but also AtSUMO1 and AtSUMO2 significantly better than did hSENP2
same,"Percent cleavage, enzyme:substrate 1:100",[10],1.9%
same,"Percent cleavage, enzyme:substrate 1:1000",[10],0%
same,"Percent cleavage, enzyme:substrate 1:100",[11],96.6%
same,"Percent cleavage, enzyme:substrate 1:1000",[11],17.2%
same,"Percent cleavage, enzyme:substrate 1:100",[12],92.3%
same,"Percent cleavage, enzyme:substrate 1:1000",[12],3.3%
same,"Percent cleavage, enzyme:substrate 1:100",[13],80.1%
same,"Percent cleavage, enzyme:substrate 1:1000",[13],11.3%
same,"Percent cleavage, enzyme:substrate 1:100",[14],20.2%
same,"Percent cleavage, enzyme:substrate 1:1000",[14],4%
same,Kcat,6xHis-hSUMO-3-eGFP,Kcat = 0.027
same,Km,6xHis-hSUMO-3-eGFP,Km = 15.8 mM
same,"Percent cleavage, enzyme:substrate 1:100",6xHis-hSUMO-3-eGFP,98.3%
same,"Percent cleavage, enzyme:substrate 1:1000",6xHis-hSUMO-3-eGFP,18.4%
same,activity level (grade),6xHis-hSUMO-3-eGFP,+
same,"cleavage, time course, SDS-PAGE",6xHis-hSUMO-3-eGFP,yUlp1 was able to cleave apparently less than half of the substrate in 4 hrs.
same,"Percent cleavage, enzyme:substrate 1:100",[15],96.3%
same,"Percent cleavage, enzyme:substrate 1:1000",[15],27.1%
same,"Percent cleavage, enzyme:substrate 1:100",[16],97.9%
same,"Percent cleavage, enzyme:substrate 1:1000",[16],16.9%
same,"Percent cleavage, enzyme:substrate 1:100",[17],95.4%
same,"Percent cleavage, enzyme:substrate 1:1000",[17],27%
same,"Percent cleavage, enzyme:substrate 1:100",[18],22.4%
same,"Percent cleavage, enzyme:substrate 1:1000",[18],0%
same,"Percent cleavage, enzyme:substrate 1:100",[19],65.5%
same,"Percent cleavage, enzyme:substrate 1:1000",[19],3.7%
same,activity level (grade),6xHis-hSUMO-1-eGFP,+
same,"cleavage, time course, SDS-PAGE",6xHis-hSUMO-1-eGFP,both enzymes cleaving hSUMO-1-eGFP poorly
same,Kcat,6xHis-ySmt3-eGFP,Kcat = 0.40
same,Km,6xHis-ySmt3-eGFP,Km = 4.5 mM
same,activity level (grade),6xHis-ySmt3-eGFP,++++
same,"cleavage, time course, SDS-PAGE",6xHis-ySmt3-eGFP,both enzymes cleaving hSUMO-1-eGFP poorly and ySmt3-eGFP well
